According to patent US20260232827A1 (Zymeworks, published 2026):

What was measured:
[1] = biological target: T1, Construct 7 (NaPi2b del 317-326) (human, UniProt O95436 1-690); assay: flow cytometry, HEK293-6e cells transfected with Construct 7
T1 construct: Deletion construct on HEK293-6e cells; also called CL_#29921
T1 sequence: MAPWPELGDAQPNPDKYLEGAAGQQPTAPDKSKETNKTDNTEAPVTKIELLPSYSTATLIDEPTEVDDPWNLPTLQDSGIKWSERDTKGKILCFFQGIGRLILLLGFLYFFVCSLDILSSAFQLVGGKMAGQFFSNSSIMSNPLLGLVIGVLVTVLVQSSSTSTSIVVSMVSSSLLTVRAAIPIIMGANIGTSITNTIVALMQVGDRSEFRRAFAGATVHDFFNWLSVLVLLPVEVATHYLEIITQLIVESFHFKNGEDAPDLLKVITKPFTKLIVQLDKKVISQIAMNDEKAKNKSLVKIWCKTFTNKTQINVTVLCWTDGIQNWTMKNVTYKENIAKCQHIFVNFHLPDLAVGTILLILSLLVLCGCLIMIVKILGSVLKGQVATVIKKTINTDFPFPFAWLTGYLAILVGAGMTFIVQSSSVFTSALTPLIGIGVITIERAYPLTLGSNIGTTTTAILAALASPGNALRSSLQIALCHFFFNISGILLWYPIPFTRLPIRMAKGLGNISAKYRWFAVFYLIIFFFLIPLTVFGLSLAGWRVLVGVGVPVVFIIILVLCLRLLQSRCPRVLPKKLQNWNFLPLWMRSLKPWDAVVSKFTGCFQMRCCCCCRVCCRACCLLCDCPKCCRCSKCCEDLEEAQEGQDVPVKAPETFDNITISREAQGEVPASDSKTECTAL
Procedure: (§1) Following transfection, cells were seeded at 50,000 cells/well in conical-bottom 96-well plates and treated with a serial dilution of test antibody for 24 hours at 4° C. to prevent internalization. Cells were treated with final concentrations of all humanized antibodies of 200, 20, or 2 nM. Cells were treated with final concentrations of the reference anti-NaPi2a rabbit antibody of 50, 5, or 0.5 nM. […] Following incubation and washing, fluorescence was detected by flow cytometry on a BD LSRFortessa™ Cell Analyzer (BD Biosciences, Franklin Lake, NJ) with 1,000 minimum events collected per well. […] Background-subtracted AF647 Mean Fluorescence Intensity (MFI) values were calculated by subtracting the average MFI of three technical replicates of unstained (no primary antibody) cells.

[2] = biological target: T2, Construct 6 (NaPi2b del 317-333) (human, UniProt O95436 1-690); assay: flow cytometry, HEK293-6e cells transfected with Construct 6
T2 construct: Deletion construct on HEK293-6e cells; also called CL_#29919
T2 sequence: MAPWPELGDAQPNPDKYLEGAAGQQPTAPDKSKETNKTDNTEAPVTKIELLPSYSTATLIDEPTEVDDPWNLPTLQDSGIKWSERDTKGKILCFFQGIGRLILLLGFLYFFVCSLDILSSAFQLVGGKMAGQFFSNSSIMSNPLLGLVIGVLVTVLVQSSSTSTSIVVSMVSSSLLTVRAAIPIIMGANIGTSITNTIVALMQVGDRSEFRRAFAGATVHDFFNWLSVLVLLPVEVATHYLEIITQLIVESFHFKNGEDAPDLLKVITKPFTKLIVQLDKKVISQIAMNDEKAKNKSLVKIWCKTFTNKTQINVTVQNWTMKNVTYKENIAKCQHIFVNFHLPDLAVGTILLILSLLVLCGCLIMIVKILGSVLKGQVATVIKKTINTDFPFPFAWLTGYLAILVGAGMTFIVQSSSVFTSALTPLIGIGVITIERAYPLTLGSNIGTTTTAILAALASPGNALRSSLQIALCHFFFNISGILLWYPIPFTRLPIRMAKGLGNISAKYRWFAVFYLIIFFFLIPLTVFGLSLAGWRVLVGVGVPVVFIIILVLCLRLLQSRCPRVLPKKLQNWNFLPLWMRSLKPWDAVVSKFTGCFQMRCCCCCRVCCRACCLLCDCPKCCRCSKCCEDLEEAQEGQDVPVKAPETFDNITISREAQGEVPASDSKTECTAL
Procedure: as §1

[3] = biological target: T3, human sodium-dependent phosphate transporter 2B (NaPi2b) (human, UniProt O95436 1-690); assay: flow cytometry on HCC-78 cells (endogenous NaPi2b), 24 h at 4 C, anti-human IgG Fc AF647, APC-A GeoMean
T3 construct: UniProt ID is given as 095436 [sic]; also called hNaPi2b; Hu NaPi2b
T3 sequence: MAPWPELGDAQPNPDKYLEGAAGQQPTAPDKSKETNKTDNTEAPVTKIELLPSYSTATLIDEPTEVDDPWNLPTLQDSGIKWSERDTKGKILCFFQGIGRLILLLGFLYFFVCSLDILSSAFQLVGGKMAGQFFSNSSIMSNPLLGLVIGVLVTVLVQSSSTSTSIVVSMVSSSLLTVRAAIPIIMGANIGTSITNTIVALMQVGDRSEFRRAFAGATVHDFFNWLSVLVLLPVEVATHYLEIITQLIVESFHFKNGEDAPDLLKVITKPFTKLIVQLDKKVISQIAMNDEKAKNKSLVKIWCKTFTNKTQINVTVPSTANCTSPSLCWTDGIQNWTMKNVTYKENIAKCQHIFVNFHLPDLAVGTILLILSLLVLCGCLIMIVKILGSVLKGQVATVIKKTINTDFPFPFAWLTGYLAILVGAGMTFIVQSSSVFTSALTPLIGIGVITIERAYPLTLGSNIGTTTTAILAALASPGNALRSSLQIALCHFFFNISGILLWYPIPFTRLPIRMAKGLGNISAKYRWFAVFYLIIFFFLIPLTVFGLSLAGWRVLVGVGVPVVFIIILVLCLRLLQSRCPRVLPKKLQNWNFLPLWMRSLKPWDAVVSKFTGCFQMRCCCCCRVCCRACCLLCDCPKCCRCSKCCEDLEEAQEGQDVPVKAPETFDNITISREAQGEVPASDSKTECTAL
Procedure: Cells were maintained under standard culture conditions (37° C./5% CO₂) until assay set-up. […] Cells were removed from culture vessels using Cell Dissociation Buffer (Invitrogen, Waltham, MA), seeded at 50,000 cells/well in conical-bottom 96-well plates, and treated with test antibody or antibody-drug conjugate for 24 hours at 4° C. to prevent internalization. […] Following incubation and washing, fluorescence was detected by flow cytometry on a BD LSRFortessa™ Cell Analyzer (BD Biosciences, Franklin Lake, NJ) with 1,000 minimum events collected per well.

B1: v18993 (lifastuzumab), reference anti-NaPi2b antibody (antibody, human IgG1, kappa)
heavy 1: GEVQLVESGGGLVQPGGSLRLSCAASGFSFSDFAMSWVRQAPGKGLEWVATIGRVAFHTYYPDSMKGRFTISRDNSKNTLYLQMNSLRAEDTAVYYCARHRGFDVGHFDFWGQGTLVTVSSASTKGPSVFPLAPSSKSTSGGTAALGCLVKDYFPEPVTVSWNSGALTSGVHTFPAVLQSSGLYSLSSVVTVPSSSLGTQTYICNVNHKPSNTKVDKKVEPKSCDKTHTCPPCPAPELLGGPSVFLFPPKPKDTLMISRTPEVTCVVVDVSHEDPEVKFNWYVDGVEVHNAKTKPREEQYNSTYRVVSVLTVLHQDWLNGKEYKCKVSNKALPAPIEKTISKAKGQPREPQVYVYPPSRDELTKNQVSLTCLVKGFYPSDIAVEWESNGQPENNYKTTPPVLDSDGSFALVSKLTVDKSRWQQGNVFSCSVMHEALHNHYTQKSLSLSPG
heavy 2: not shown
light: GDIQMTQSPSSLSASVGDRVTITCRSSETLVHSSGNTYLEWYQQKPGKAPKLLIYRVSNRFSGVPSRFSGSGSGTDFTLTISSLQPEDFATYYCFQGSFNPLTFGQGTKVEIKRTVAAPSVFIFPPSDEQLKSGTASVVCLLNNFYPREAKVQWKVDNALQSGNSQESVTEQDSKDSTYSLSSTLTLSKADYEKHKVYACEVTHQGLSSPVTKSFNRGEC
[1]
  binding result: no binding (tested: 200 nM)

B2: v18992 (MX35), reference anti-NaPi2b antibody (antibody, human IgG1, kappa)
heavy 1: GQVQLVQSGAEVVKPGASVKMSCKASGYTFTGYNIHWVKQAPGQGLEWIGAIYPGNGDTSYKQKFRGRATLTADTSTSTVYMELSSLRSEDSAVYYCARGETARATFAYWGQGTLVTVSSASTKGPSVFPLAPSSKSTSGGTAALGCLVKDYFPEPVTVSWNSGALTSGVHTFPAVLQSSGLYSLSSVVTVPSSSLGTQTYICNVNHKPSNTKVDKKVEPKSCDKTHTCPPCPAPELLGGPSVFLFPPKPKDTLMISRTPEVTCVVVDVSHEDPEVKFNWYVDGVEVHNAKTKPREEQYNSTYRVVSVLTVLHQDWLNGKEYKCKVSNKALPAPIEKTISKAKGQPREPQVYVYPPSRDELTKNQVSLTCLVKGFYPSDIAVEWESNGQPENNYKTTPPVLDSDGSFALVSKLTVDKSRWQQGNVFSCSVMHEALHNHYTQKSLSLSPG
heavy 2: not shown
light: GDIQMTQSPSSLSASVGDRVTITCSASQDIGNFLNWYQQKPGKTVKVLIYYTSSLYSGVPSRFSGSGSGTDYTLTISSLQPEDFATYYCQQYSKLPLTFGQGTKLELKRTVAAPSVFIFPPSDEQLKSGTASVVCLLNNFYPREAKVQWKVDNALQSGNSQESVTEQDSKDSTYSLSSTLTLSKADYEKHKVYACEVTHQGLSSPVTKSFNRGEC
[2]
  binding result: no binding (tested: 200 nM)

B3: v38591 (humanized anti-NaPi2b antibody, wild-type Fc) (antibody, human IgG1, kappa)
heavy: not shown
light: DVQMTQSPSSLSASVGDRVTITCRASQDVYSYLNWYQQKPGKAVKLLIYYTSRLQSGVPSRFSGSGSGTDYTLTISSLQPEDFATYYCQQYNIFPWTFGQGTKLEIKRTVAAPSVFIFPPSDEQLKSGTASVVCLLNNFYPREAKVQWKVDNALQSGNSQESVTEQDSKDSTYSLSSTLTLSKADYEKHKVYACEVTHQGLSSPVTKSFNRGEC
notes: also called v38591 Wild-type; H1L2
[3]
  EC50 (read off the curve): ~3 nM
